Measurements published in EP4667483A1 (JCR Pharmaceuticals Co., Ltd., dated 2024).
Numbered stars: 1 amine (or outer) side, 2 acyl side, 3 side chain; on linkers, the order of the positions; unused ones are H or OH. Bridge positions count the residues as written; N and C are the ends. Square brackets hold non-standard residues; d marks the D form. Primed or numbered codes have the meaning given here. Ends that are not written are not given here. * marks the point of attachment. F4aao = 4-(carboxymethoxy)-L-phenylalanine, O=C([C@H](Cc1ccc(OCC(=O)[*:3])cc1)N[*:1])[*:2]; NH(1-deoxy-D-glucityl) = OC[C@@H](O)[C@@H](O)[C@H](O)[C@@H](O)CN*; PEG4c = amino-tetraoxa (PEG4) carboxylic acid spacer; NMePhe(4-COOH) = CN[C@@H](Cc1ccc(C(=O)O)cc1)C(=O)O; Tyr(Me) = COc1ccc(C[C@H](N[*:1])C(=O)[*:2])cc1; NMePhe(3-Cl) = CN[C@@H](Cc1cccc(Cl)c1)C(=O)O; Piperazinyl(4-CH2COOH) = O=C(O)CN1CCN(*)CC1; 3Pal(6-NH2) = Nc1ccc(C[C@H](N)C(=O)O)cn1; NMeW = CN[C@@H](Cc1c[nH]c2ccccc12)C(=O)O; Lys(N3) = [N-]=[N+]=NCCCC[C@H](N)C(=O)O; NMeY = CN[C@@H](Cc1ccc(O)cc1)C(=O)O; Nva(3-Et) = CCC(CC)[C@H](N)C(=O)O; NMeF = CN[C@@H](Cc1ccccc1)C(=O)O; F3COO(PEG4c) = not defined here; PEG4c(3) = PEG4 linker acid; PEG4c″ = not defined here

B1: 894_0601 (peptide)
peptide: AVXVWNXYIIKRYXC
modifications: not fully specified; as printed: A-V-MeF-V-W-N-3Py6NH2-Y-I-I-K-R-Y-MeY-C; linker PEG4c; cyclic (ClAc-Ala1 thioether to Cys15)
B2: 894_0602 (peptide)
peptide: AVXVXNXYIIKRYXC
modifications: not fully specified; as printed: A-V-MeF-V-MeW-N-3Py6NH2-Y-I-I-K-R-Y-MeY-C; linker PEG4c; cyclic (ClAc-Ala1 thioether to Cys15)
B3: 894_0619 (peptide)
peptide: {CH2CO}-AV[NMeF]V[NMeW]N[3Pal(6-NH2)]YI[code s]KRY[NMeY]C
modifications: thioether N-15; also: linker PEG4c attached, place not given here
notes: Position 10 is printed as lower-case 's'
B4: 894_0620 (peptide)
peptide: {CH2CO}-AV[NMePhe(3-Cl)]V[NMeW]N[3Pal(6-NH2)]YI[code s]KRY[NMeY]C
modifications: thioether N-15; also: linker PEG4c attached, place not given here
notes: as for B3
B5: 894_0607 (peptide)
peptide: AVXVXNYYIIKRXXC
modifications: not fully specified; as printed: A-V-MeF3C-V-W1Me-N-Y-Y-I-I-K-R-4Py-MeY-C; linker PEG4c; cyclic (ClAc-Ala1 thioether to Cys15)
B6: 894_0615 (peptide)
peptide: AVXVXNYYIIKRYXC
modifications: as printed: A-V-Me3Py-V-MeW-N-Y-Y-I-I-K-R-Y-MeY-C; linker PEG4c; cyclic (ClAc-Ala1 thioether to Cys15)
B7: 894_0616 (peptide)
peptide: AVXVXNYYXIKRYXC
modifications: as printed: A-V-Me3Py-V-MeW-N-Y-Y-Eva-I-K-R-Y-MeY-C; linker PEG4c; cyclic (ClAc-Ala1 thioether to Cys15)
B8: 894_3435 (peptide)
peptide: AVXVWNYYIIXRYXC
modifications: as printed: A-V-MeF-V-W-N-Y-Y-I-I-E(PEG8Me)-R-Y-MeY-C; linker G-KN3; cyclic (ClAc-Ala1 thioether to Cys15)
B9: 894_3436 (peptide)
peptide: AVXVWNYYIIRRXXC
modifications: as printed: A-V-MeF-V-W-N-Y-Y-I-I-R-R-F3COO(PEG8Me)-MeY-C; linker G-KN3; cyclic (ClAc-Ala1 thioether to Cys15)
B10: 894_0636 (peptide)
peptide: AVXVXNYXIIKRFXC
modifications: as printed: A-V-MeF3C-V-MeW-N-Y-F4OMe-I-I-K-R-F-MeY-C; linker PEG4c-NH2; cyclic (ClAc-Ala1 thioether to Cys15)
B11: 894_0637 (peptide)
peptide: AVXVXNYXIIQRFXC
modifications: as printed: A-V-MeF3C-V-MeW-N-Y-F4OMe-I-I-Q-R-F-MeY-C; linker PEG4c-NH2; cyclic (ClAc-Ala1 thioether to Cys15)
B12: 894_3498 (peptide)
peptide: AVXVXNXYIIKRYXC
modifications: as printed: A-V-MeF-V-MeW-N-3Py6NH2-Y-I-I-K-R-Y-MeF4COO-C; linker G-de-de-de-ds-ds-KN3-NH2; cyclic (ClAc-Ala1 thioether to Cys15)
B13: 894_3488 (peptide)
peptide: AVXVXNYYIIKRXXC
modifications: as printed: A-V-MeF-V-MeW-N-Y-Y-I-I-K-R-F3COO(PEG4c)-MeF4COO-C; linker G-KN3-NH2; cyclic (ClAc-Ala1 thioether to Cys15)
B14: 894_3486 (peptide)
peptide: {CH2CO}-AV[NMeF]V[NMeW]N[3Pal(6-NH2)]YIIKRY[NMePhe(4-COOH)]CG[Lys(N3)]-NH2
modifications: thioether N-15
SMILES: CC[C@H](C)[C@@H]1NC(=O)[C@H](Cc2ccc(O)cc2)NC(=O)[C@H](Cc2ccc(N)nc2)NC(=O)[C@H](CC(N)=O)NC(=O)[C@H](Cc2c[nH]c3ccccc23)N(C)C(=O)[C@H](C(C)C)NC(=O)[C@H](Cc2ccccc2)N(C)C(=O)[C@H](C(C)C)NC(=O)[C@H](C)NC(=O)CSC[C@@H](C(=O)NCC(=O)N[C@@H](CCCCN=[N+]=[N-])C(N)=O)NC(=O)[C@H](Cc2ccc(C(=O)O)cc2)N(C)C(=O)[C@H](Cc2ccc(O)cc2)NC(=O)[C@H](CCCNC(=N)N)NC(=O)[C@H](CCCCN)NC(=O)[C@H]([C@@H](C)CC)NC1=O

Key:
[1] = target: T1, human transferrin receptor (hTfR) (human, UniProt P02786 89-760); assay: SPR, pH 6.0
T1 construct: a His tag is implied by the NTA chip and the anti-His capture; also called human TfR; TfR1
T1 sequence (P02786 89-760 limits assumed): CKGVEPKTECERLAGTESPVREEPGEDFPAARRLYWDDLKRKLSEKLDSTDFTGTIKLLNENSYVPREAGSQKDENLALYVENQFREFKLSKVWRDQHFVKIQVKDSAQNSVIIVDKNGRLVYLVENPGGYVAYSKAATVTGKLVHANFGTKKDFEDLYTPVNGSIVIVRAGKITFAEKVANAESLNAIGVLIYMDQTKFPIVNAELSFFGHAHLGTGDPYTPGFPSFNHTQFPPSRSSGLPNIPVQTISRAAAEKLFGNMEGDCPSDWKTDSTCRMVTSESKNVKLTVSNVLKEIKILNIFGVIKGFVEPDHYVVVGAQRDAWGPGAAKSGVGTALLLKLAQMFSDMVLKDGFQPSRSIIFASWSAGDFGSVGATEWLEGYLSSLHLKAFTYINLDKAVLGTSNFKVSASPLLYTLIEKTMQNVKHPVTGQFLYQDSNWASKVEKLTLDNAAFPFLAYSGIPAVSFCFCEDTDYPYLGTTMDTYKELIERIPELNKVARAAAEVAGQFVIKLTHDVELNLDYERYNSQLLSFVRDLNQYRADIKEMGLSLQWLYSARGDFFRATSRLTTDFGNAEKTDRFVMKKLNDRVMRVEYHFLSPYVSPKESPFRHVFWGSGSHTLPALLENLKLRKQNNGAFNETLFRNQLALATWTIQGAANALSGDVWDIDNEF

[2] = target: T1, human transferrin receptor (hTfR); assay: SPR, pH 7.4
[3] = target: T1, human transferrin receptor (hTfR); assay: SPR, KD pH 6.0 / KD pH 7.4
[4] = target: T1, human transferrin receptor (hTfR); assay: SPR, koff pH 6.0 / koff pH 7.4
[5] = target: T2, human transferrin receptor (hTfR) (human, UniProt P02786 89-760); assay: SPR, KD at pH 6.0 over KD at pH 7.4
T2 construct: Recombinant hTfR; at pH 7.4 captured on the chip by an anti-His tag antibody, at pH 6.0 immobilized on an NTA chip, so it carries a His tag; also called human TfR; TfR1
T2 sequence (P02786 89-760 limits assumed): as above

[6] = target: T2, human transferrin receptor (hTfR); assay: SPR, koff at pH 6.0 over koff at pH 7.4
[7] = target: T2, human transferrin receptor (hTfR); assay: SPR (Biacore T200), pH 6.0, hTfR on chip
[8] = target: T2, human transferrin receptor (hTfR); assay: SPR (Biacore T200), pH 7.4, hTfR on chip
[9] = target: T2, human transferrin receptor (hTfR); assay: SPR, KD at pH 6.0 over KD at pH 7.4; remark: listed apart in the source
[10] = target: T2, human transferrin receptor (hTfR); assay: SPR, koff at pH 6.0 over koff at pH 7.4; remark: listed apart in the source
[11] = target: T2, human transferrin receptor (hTfR); assay: SPR (Biacore T200), pH 6.0, hTfR on chip; remark: listed apart in the source
[12] = target: T2, human transferrin receptor (hTfR); assay: SPR (Biacore T200), pH 7.4, hTfR on chip; remark: listed apart in the source
[13] = target: T2, human transferrin receptor (hTfR); assay: SPR, KD at pH 6.0 over KD at pH 7.4; remark: listed apart in the source
[14] = target: T2, human transferrin receptor (hTfR); assay: SPR, koff at pH 6.0 over koff at pH 7.4; remark: listed apart in the source
[15] = target: T2, human transferrin receptor (hTfR); assay: SPR (Biacore T200), pH 6.0, hTfR on chip; remark: listed apart in the source
[16] = target: T2, human transferrin receptor (hTfR); assay: SPR (Biacore T200), pH 7.4, hTfR on chip; remark: listed apart in the source

Binder	dependency KD pH6.0/7.4 [5]	dependency koff pH6.0/7.4 [6]	Kd [7]	Kd [8]	also measured
{CH2CO}-AV[NMePhe(3-Cl)]VWNY[F4aao](Piperazinyl(4-CH2COOH))IIE(NH(1-deoxy-D-glucityl))QF[NMeY]C-{PEG4c-NH2} (thioether N-15) [894_0510 (SEQ ID NO: 37)]					Kd [1]: 27.9 nM; Kd [2]: 1.54 nM; dependency KD pH6.0/7.4 [3]: 18.1; dependency koff pH6.0/7.4 [4]: 33.9
{CH2CO}-AV[NMeF]V[NMeW]NYY[Nva(3-Et)]IKRY[NMePhe(4-COOH)]C (thioether N-15; not fully specified (C-terminus)) [894_0593]	2.64	3.72	9.52 nM	3.61 nM	
{CH2CO}-AV[NMeF]V[NMeW]NYY[Nva(3-Et)]SKRY[NMeY]C (thioether N-15; not fully specified (C-terminus)) [894_0611]	2.18	4.83	66.3 nM	30.4 nM	
{CH2CO}-AV[NMePhe(3-Cl)]V[NMeW]NYY[Nva(3-Et)]SKRY[NMeY]C (thioether N-15; not fully specified (C-terminus)) [894_0612]	2.33	6.71	13.2 nM	5.67 nM	
B1	3.28	8.89	17.4 nM	5.3 nM	
B2	2.97	6.5	18.9 nM	6.37 nM	
B3	4.57	12.2	126 nM	27.6 nM	
B4	3.26	12.5	16.2 nM	4.97 nM	
{CH2CO}-AV[NMeF]VWN[3Pal(6-NH2)]YIIKRY[NMePhe(4-COOH)]C (thioether N-15; not fully specified (C-terminus)) [894_0603]	4.79	11.3	35 nM	7.31 nM	
{CH2CO}-AV[NMeF]V[NMeW]N[3Pal(6-NH2)]YIIKRY[NMePhe(4-COOH)]C (thioether N-15; not fully specified (C-terminus)) [894_0604]	4.76	7.83	16.7 nM	3.51 nM	
B5	3.74	7.49	2.04 nM	0.546 nM	
B6	0.92	2.87	15.3 nM	16.6 nM	
B7	1.22	3.41	50.8 nM	41.7 nM	
B8	3.55	6.89	41.2 nM	11.6 nM	
B9	3.36	5.75	6.72 nM	2 nM	
{CH2CO}-AV[NMeF]VWNRYIIRR[F3COO(PEG4c)][NMePhe(4-COOH)]CG[Lys(N3)]-NH2 (thioether N-15; reading uncertain) [894_3491]					dependency KD pH6.0/7.4 [9]: 3.73; dependency koff pH6.0/7.4 [10]: 2.44; Kd [11]: 799 nM; Kd [12]: 214 nM
B10					dependency KD pH6.0/7.4 [13]: 3.58; dependency koff pH6.0/7.4 [14]: 5.55; Kd [15]: 0.81 nM; Kd [16]: 0.226 nM
B11					dependency KD pH6.0/7.4 [13]: 5.66; dependency koff pH6.0/7.4 [14]: 9.23; Kd [15]: 4.86 nM; Kd [16]: 0.859 nM
{CH2CO}-AV[NMePhe(3-Cl)]V[NMeW]NR[Tyr(Me)]IIKRF[NMeY]C-{PEG4c″-NH2} (thioether N-15; reading uncertain) [894_0641]					dependency KD pH6.0/7.4 [13]: 3.49; dependency koff pH6.0/7.4 [14]: 3.44; Kd [15]: 13.3 nM; Kd [16]: 3.81 nM
{CH2CO}-AV[NMePhe(3-Cl)]V[NMeW]NR[Tyr(Me)]IIQRF[NMeY]C-{PEG4c(3)-NH2} (thioether N-15) [894_0642]					dependency KD pH6.0/7.4 [13]: 3.67; dependency koff pH6.0/7.4 [14]: 4.85; Kd [15]: 75.5 nM; Kd [16]: 20.6 nM
{CH2CO}-AV[NMePhe(3-Cl)]V[NMeW]NY[F4aao]IIKRF[NMeY]C-{PEG4c(3)-NH2} (thioether N-15) [894_0644]					dependency KD pH6.0/7.4 [13]: 2.37; dependency koff pH6.0/7.4 [14]: 4.92; Kd [15]: 0.764 nM; Kd [16]: 0.322 nM
{CH2CO}-AV[NMePhe(3-Cl)]V[NMeW]NY[F4aao]IIKRF[NMePhe(4-COOH)](PEG4c(3))C-{PEG4c(3)-NH2} (thioether N-15) [894_0647]					dependency KD pH6.0/7.4 [13]: 5.35; dependency koff pH6.0/7.4 [14]: 9.27; Kd [15]: 0.76 nM; Kd [16]: 0.142 nM
B12					dependency KD pH6.0/7.4 [9]: 7.71; dependency koff pH6.0/7.4 [10]: 10.8; Kd [11]: 145 nM; Kd [12]: 18.8 nM
B13					dependency KD pH6.0/7.4 [9]: 3.22; dependency koff pH6.0/7.4 [10]: 5.15; Kd [11]: 5.15 nM; Kd [12]: 1.6 nM
B14					dependency KD pH6.0/7.4 [9]: 4.73; dependency koff pH6.0/7.4 [10]: 8.92; Kd [11]: 13.9 nM; Kd [12]: 2.94 nM
